Experimental data as given in patent US20120238493A1 (INDIANA UNIVERSITY RESEARCH AND TECHNOLOGY, published 2012).
*1 amine or outer side, *2 acyl side, *3 side chain or, on linkers, in order; H or OH if unused. Where no end group is shown, it is not given here. Side-chain parts run from the residue outwards. [ ]: non-standard residue; d: D form. The star is where a group is joined. γGlu = O=C(O)[C@H](CCC(=O)[*:2])N[*:1]; Palmitoyl = CCCCCCCCCCCCCCCC(=O)*; Aib = CC(C)(N)C(=O)O

T1: GIP receptor (UniProt P48546 22-466, limits assumed)
T1 sequence (looked up): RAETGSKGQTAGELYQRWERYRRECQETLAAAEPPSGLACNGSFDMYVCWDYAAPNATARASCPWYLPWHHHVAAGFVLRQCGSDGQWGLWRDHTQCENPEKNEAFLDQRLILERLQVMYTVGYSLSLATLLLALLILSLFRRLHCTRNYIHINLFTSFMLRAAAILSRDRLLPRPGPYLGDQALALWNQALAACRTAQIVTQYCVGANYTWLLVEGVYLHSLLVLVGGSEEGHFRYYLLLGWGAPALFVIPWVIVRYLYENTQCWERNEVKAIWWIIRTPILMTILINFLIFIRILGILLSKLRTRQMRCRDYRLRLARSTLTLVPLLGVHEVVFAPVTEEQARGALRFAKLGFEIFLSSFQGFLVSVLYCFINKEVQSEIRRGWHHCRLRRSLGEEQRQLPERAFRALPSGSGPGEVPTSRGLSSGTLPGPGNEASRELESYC

B1: Analog No. 61: Aib2, K10acyl, E16, Aib20, E21, L27, D28, G29 + CEX (SEQ ID NO: 37) (peptide)
peptide: H[Aib]QGTFTSDK([γGlu-Palmitoyl])SKYLDERRA[Aib]EFVQWLLDGGPSSGAPPPS-NH2
modifications: N-terminus assumed
SMILES: CCCCCCCCCCCCCCCC(=O)N[C@@H](CCC(=O)NCCCC[C@H](NC(=O)[C@H](CC(=O)O)NC(=O)[C@H](CO)NC(=O)[C@@H](NC(=O)[C@H](Cc1ccccc1)NC(=O)[C@@H](NC(=O)CNC(=O)[C@H](CCC(N)=O)NC(=O)C(C)(C)NC(=O)[C@@H](N)Cc1c[nH]cn1)[C@@H](C)O)[C@@H](C)O)C(=O)N[C@@H](CO)C(=O)N[C@@H](CCCCN)C(=O)N[C@@H](Cc1ccc(O)cc1)C(=O)N[C@@H](CC(C)C)C(=O)N[C@@H](CC(=O)O)C(=O)N[C@@H](CCC(=O)O)C(=O)N[C@@H](CCCNC(=N)N)C(=O)N[C@@H](CCCNC(=N)N)C(=O)N[C@@H](C)C(=O)NC(C)(C)C(=O)N[C@@H](CCC(=O)O)C(=O)N[C@@H](Cc1ccccc1)C(=O)N[C@H](C(=O)N[C@@H](CCC(N)=O)C(=O)N[C@@H](Cc1c[nH]c2ccccc12)C(=O)N[C@@H](CC(C)C)C(=O)N[C@@H](CC(C)C)C(=O)N[C@@H](CC(=O)O)C(=O)NCC(=O)NCC(=O)N1CCC[C@H]1C(=O)N[C@@H](CO)C(=O)N[C@@H](CO)C(=O)NCC(=O)N[C@@H](C)C(=O)N1CCC[C@H]1C(=O)N1CCC[C@H]1C(=O)N1CCC[C@H]1C(=O)N[C@@H](CO)C(N)=O)C(C)C)C(=O)O
B2: dual acylated peptide of SEQ ID NO: 163 (peptide)
peptide: H[Aib]QGTFTSDK([γGlu-Palmitoyl])SKYLDERAAQDFVQWLLDGGPSSGAPPPSK([γGlu-Palmitoyl])-NH2
modifications: N-terminus assumed
SMILES: CCCCCCCCCCCCCCCC(=O)N[C@@H](CCC(=O)NCCCC[C@H](NC(=O)[C@H](CO)NC(=O)[C@@H]1CCCN1C(=O)[C@@H]1CCCN1C(=O)[C@@H]1CCCN1C(=O)[C@H](C)NC(=O)CNC(=O)[C@H](CO)NC(=O)[C@H](CO)NC(=O)[C@@H]1CCCN1C(=O)CNC(=O)CNC(=O)[C@H](CC(=O)O)NC(=O)[C@H](CC(C)C)NC(=O)[C@H](CC(C)C)NC(=O)[C@H](Cc1c[nH]c2ccccc12)NC(=O)[C@H](CCC(N)=O)NC(=O)[C@@H](NC(=O)[C@H](Cc1ccccc1)NC(=O)[C@H](CC(=O)O)NC(=O)[C@H](CCC(N)=O)NC(=O)[C@H](C)NC(=O)[C@H](C)NC(=O)[C@H](CCCNC(=N)N)NC(=O)[C@H](CCC(=O)O)NC(=O)[C@H](CC(=O)O)NC(=O)[C@H](CC(C)C)NC(=O)[C@H](Cc1ccc(O)cc1)NC(=O)[C@H](CCCCN)NC(=O)[C@H](CO)NC(=O)[C@H](CCCCNC(=O)CC[C@H](NC(=O)CCCCCCCCCCCCCCC)C(=O)O)NC(=O)[C@H](CC(=O)O)NC(=O)[C@H](CO)NC(=O)[C@@H](NC(=O)[C@H](Cc1ccccc1)NC(=O)[C@@H](NC(=O)CNC(=O)[C@H](CCC(N)=O)NC(=O)C(C)(C)NC(=O)[C@@H](N)Cc1c[nH]cn1)[C@@H](C)O)[C@@H](C)O)C(C)C)C(N)=O)C(=O)O
B3: Analog No. 62: Aib2, E3, K10acyl, E16, Aib20, E21, L27, D28, G29 + CEX (SEQ ID NO: 38) (peptide)
peptide: H[Aib]EGTFTSDK([γGlu-C16])SKYLDERRA[Aib]EFVQWLLDGGPSSGAPPPS-NH2

What was measured:
Assay in all cases: cell-based or functional assay
[1] = target: T2, GLP-1 receptor (UniProt P43220 24-463, limits assumed)
Target sequence in this assay (P43220 24-463 limits assumed): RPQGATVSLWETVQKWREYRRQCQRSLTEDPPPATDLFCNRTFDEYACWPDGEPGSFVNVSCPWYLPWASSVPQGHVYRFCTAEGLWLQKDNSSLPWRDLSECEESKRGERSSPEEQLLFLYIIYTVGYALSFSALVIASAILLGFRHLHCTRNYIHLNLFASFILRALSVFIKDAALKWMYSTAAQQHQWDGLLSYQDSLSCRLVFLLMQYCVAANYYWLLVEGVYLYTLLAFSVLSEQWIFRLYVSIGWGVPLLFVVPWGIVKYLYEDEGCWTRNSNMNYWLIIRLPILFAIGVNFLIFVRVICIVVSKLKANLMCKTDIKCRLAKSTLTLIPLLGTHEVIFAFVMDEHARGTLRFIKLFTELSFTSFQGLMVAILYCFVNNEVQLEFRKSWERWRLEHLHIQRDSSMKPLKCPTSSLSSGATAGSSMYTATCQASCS

[2] = target: T3, glucagon receptor (UniProt P47871 26-477, limits assumed)
[3] = target: T1, GIP receptor
[4] = target: T2, GLP-1 receptor; remark: listed apart in the source
Target sequence in this assay (P43220 24-463 limits assumed): as above

[5] = target: T3, glucagon receptor; remark: listed apart in the source
[6] = target: T1, GIP receptor; remark: listed apart in the source
[7] = target: T2, GLP-1 receptor; remark: listed apart in the source
[8] = target: T3, glucagon receptor; remark: listed apart in the source
[9] = target: T1, GIP receptor; remark: listed apart in the source

T3 sequence (P47871 26-477 limits assumed): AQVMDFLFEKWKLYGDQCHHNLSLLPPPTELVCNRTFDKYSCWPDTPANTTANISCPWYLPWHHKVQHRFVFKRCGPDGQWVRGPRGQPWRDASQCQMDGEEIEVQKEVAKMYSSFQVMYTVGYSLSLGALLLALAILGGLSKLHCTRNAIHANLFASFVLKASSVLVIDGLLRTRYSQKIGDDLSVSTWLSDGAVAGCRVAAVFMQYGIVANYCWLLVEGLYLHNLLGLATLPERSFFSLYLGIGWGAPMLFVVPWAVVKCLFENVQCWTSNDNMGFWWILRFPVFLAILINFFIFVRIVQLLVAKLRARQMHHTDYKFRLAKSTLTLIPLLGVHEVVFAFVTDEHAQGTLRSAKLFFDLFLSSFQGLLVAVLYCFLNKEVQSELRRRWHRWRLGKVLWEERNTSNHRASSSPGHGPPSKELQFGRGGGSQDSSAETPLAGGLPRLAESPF

| Binder | EC50 (cAMP reporter) [1] [pM] | EC50 (cAMP reporter) [2] [nM] | EC50 (cAMP reporter) [3] [pM] | activity (cAMP reporter), column GLP [4] | activity (cAMP reporter), column Glu [5] | activity (cAMP reporter), column GIP [6] | EC50 (cAMP, nmole) [7] [nmol] | EC50 (cAMP, nmole) [8] [nmol] | EC50 (cAMP, nmole) [9] [nmol] |
| --- | --- | --- | --- | --- | --- | --- | --- | --- | --- |
| B1 | 6 | 0.004 | 2 | 0.006 | 0.004 | 0.003 |  |  |  |
| B2 |  |  |  |  |  |  | 0.011 | 0.018 | 0.024 |
| B3 | 8 | 0.127 | 12 | 0.008 | 0.127 | 0.012 |  |  |  |
